Experimental data as given in the DeepSol protein solubility set.

assay: soluble on expression in E. coli; label from the status in PepcDB or PDB records

**Q.** Which “soluble on expression in E. coli” value does the source give for “MAEHVEIVEMAARDGLQNEKRFVPTADKIALINRLSDCGYARIEATSFVSPKWVPQLADSREVMAGIRRADGVRYSVLVPNMKGYEAAAAAHADEIAVFISASEGFSKANINCTIAESIERLSPVIGAAINDGLAIRGYVSCVVECPYDGPVTPQAVASVTEQLFSLGCHEVSLGDTIGRGTPDTVAAMLDAVLAIAPAHSLAGHYHDTGGRALDNIRVSLEKGLRVFDASVGGLGGSPFAPGAKGNVDTVAVVEMLHEMGFETGLDLDRLRSAGLFTQALRQDKAALEHHHHHH” here?
**A.** soluble

**Q.** For “MAEIDYKKVTGMIHSTESFGSVDGPGIRFIIFMQGCKMRCQYCHNPDTWEMETNNSKERTVEDVLKEALRYKHFWGKDGGITVSGGEAMLQIDFITALFIEAKKLGIHTTLDTCGFAYRATPEYHAILEKLLDVTDLVLLDLKEIDSEQHKIVTRQSNKNILQFARYLSDRGTPVWIRHVLVPGLTD”, which “soluble on expression in E. coli” value is on record?
**A.** not soluble

**Q.** Which “soluble on expression in E. coli” value does the source give for “MAEKAENLPSSSAEASEEPSPQTGPNVNQKPSILVLGMAGSGKTTFVQRLTAFLHARKTPPYVINLDPAVSKVPYPVNVDIRDTVKYKEVMKEFGMGPNGAIMTCLNLMCTRFDKVIELINKRSSDFSVCLLDTPGQIEAFTWSASGSIITDSLASSHPTVVMYIVDSARATNPTTFMSNMLYACSILYRTKLPFIVVFNKADIVKPTFALKWMQDFERFDEALEDARSSYMNDLSRSLSLVLDEFYCGLKTVCVSSATGEGFEDVMTAIDESVEAYKKEYVPMYEKVLAEKKLLDEEERKKRDEETLKGKAVHDLNKVANPDEFLESELNSKIDRIHLGGVDEENEEDAELERS” here?
**A.** not soluble

**Q.** Which “soluble on expression in E. coli” value does the source give for “MAEKLSAHCHCGAVAFTVELSDGFNTVRRCNCSYCRMRGAVAVSSPRSGIEVVRGGDKLTEYRFNTGEAVHFFCSVCGIYTFHQRRSNPQQYGVNVACIDGVSPFDFP” here?
**A.** not soluble

**Q.** Which “soluble on expression in E. coli” value does the source give for “MAERRMFAKTIIDSDAFLDMPLSSQALYFHLAMRADDDGFINNPKKLQRMVGCGEDDLKLLMVKKFILVFESGVIVIKHWKIHNYIRSDRYKPTLYQEEKNQIVEKNSKAYTFKAESSVGGQPADYQRLPQESIVQSKLGQSQGSSSENDCLKMIYHFYEENGFGTLASKTSQDFKYWLQDFIQKGASQEEACQLILHALGIAVDRNKRNYGYVNAILKSWEQQNYLSVHEVLVNDKKQVLEHAPQMTEEYQELGF” here?
**A.** not soluble

**Q.** For “MAETHSLGTKILIKIIRLYQIMISPFIGARCRFVPTCSCYGIEALKTHGLLKGGWLTLKRVLKCHPLNAGGFDPVPPKTNNNDEKK”, which “soluble on expression in E. coli” value is on record?
**A.** not soluble

**Q.** With “MAFGWHSMHGSIIWFLQIAQLSTAISHDQNATAVHFLISNLFFLVSTGALWFELCAIFCDSSSSTSILSTSLLMLNYFSLKFSATGERHLVATNIAHIEAHTSIVGFMISLFTPLKETIITKYEMLVRT” as the sequence, how does the “soluble on expression in E. coli” value read?
**A.** soluble

**Q.** With “MAFKPVSITGTRRQAGQALGKLARPLMATYLEQSTVWAALRPWRGHAYLEALAHEASQALPEIWDELEGLAEGLRMPLVDILLWNCRGDLLHKTSDGCTSIAWRGDEDARWIAHNEDGDPFLYGRCHMVDVRTDDAPGYISFYYPGSLPGHTFGANRAGLVQTINNVRIRQRHAGVPRMLLARAVLDCATLDDALAVLRDHPRAGGFHHTLGAAGEPRLYSVEASPAACSIGEVARGNGHANHLVHPGSEAIGQIVTDSSRSRQRHIENLMDHWQPPVDGARLVATLLDREGELPILRCGADDPDEENTLATALFEMRDGGLTLQVHDRRDQPALRVTVCPAALEHHHHHH” as the sequence, how does the “soluble on expression in E. coli” value read?
**A.** not soluble

**Q.** Which “soluble on expression in E. coli” value does the source give for “MAFLGYGAAAALGGALVYANLPTYLTIGAVAPTFAHLAAAKLVPIRGGPKEKEVVERNEQFTADSLFKKGPIMVMAVRRPGCMLCRREAAELHTLLPLLKEKGIELAAVVHETRGANEFKSWFSGGDVYLDTDRTFYGPNERWLPVWMGFLRFGTYSNVYKAKKAKVEGNMEGEGRLLGGVYLIANNDIVFTHLEKEWGDAADIKEVRAAVEKFSEKSK” here?
**A.** not soluble

**Q.** Which “soluble on expression in E. coli” value does the source give for “MAFQLEMVTRETVVIRLFGELDHHAVEQIRAKISTAIFQGAVTTIIWNFERLSFMDSSGVGLVLGRMRELEAVAGRTILLNPSPTVRKVFQFSGLGPWMMDATEEEAIDRVRGIVNG” here?
**A.** soluble

**Q.** Which “soluble on expression in E. coli” value does the source give for “MAFRQPNTKELKVIRKALSYYGSGDFLSHYALLVKEGEKKEVYGVSKELYGVIGELNPHYAGVKIGEVGRRFRFSLEGTFWLLRNSRNRVWVNERGEMLFLYGRDIFAGSVERASEFGENSIVFVCNRFDDVLGIGRSRHSSDELSNLPEDKVFVENLVDRGEYLRHQKTYLSF” here?
**A.** not soluble

**Q.** With “MAFSIMGILTIMEFLVYRDTRMKYEYEVDKDFTSKIRLNIDITVAMKCQYVGADVLDLAETMVTSAQGLAYQPVSLCSRTISNTSCGVSGKLWIQSTENVKVVTDAVSLVPNRLNSCSAGDI” as the sequence, how does the “soluble on expression in E. coli” value read?
**A.** not soluble

**Q.** For “MAFVKPILLKSATCLLPRVLKLLFATLKINVGYAGEKLPDDQRGVMFAFWHGKMIAGWLLARRLYPKREISAVVSLSGDGQILSDTLDRLGFHLIRGSSSRGKEVVRRGIGVALSNGGVAAVTPDGPRGPHHRFKYGTLRLAAQHRTPVVFAEISYDNARRLKSWDRFEIPLPFSRVRVTLHVVQVPEFPTEEAFRAWADELSTGFDDALEHHHHHH”, which “soluble on expression in E. coli” value is on record?
**A.** not soluble

**Q.** For “MAGASETYTHTLTDVPIDIKYDSDDYFISGYSYGADVYMSSVNRVKLDSEINEDTRKFKVVADLTNMKPGTHKVPLKVVNLPSGVNATVSPTTITVTMGKKKTKEFPLEHHHHHH”, which “soluble on expression in E. coli” value is on record?
**A.** not soluble

**Q.** Which “soluble on expression in E. coli” value does the source give for “MAGDPMAEAGNKTQNQSATEVNASPLQPAEYFIYHNLMNDKGLIKTDFSDQPSYLSESLGLWMEFLLSKNDAPHFQDQYQHLTDSFLMSNHLVTWKIQNGQASGTNALIDDMRIMLSLDQAAAKWGRSDYAQTARDIGTSLKTYNMNNGFFTDFYDSQAASKDVTLSYVMPDALAVLKKNGIIDEETEQRNANVLYSAPLKNGFLPKTYSSETKEYTYDSEINLIDQLYAAWHLPEGDEKASVLADWIKQEFQKNGKLYGRYSAYTKEPAVQYESPSVYALAVLFLTKQHENSSVIKAIYDRMNDFEIHDPVKSYYGGYMSGTQTHSFDNLLPLLAERKLFNENIIQLEHHHHHH” here?
**A.** soluble

**Q.** For “MAGDPMGRQRGAGLGGGHDEREQTLNQMLVEMDGFSGNDGVIVIAATNRPDVLDPALTRPGRFDRQVVVGLPDVKGREQILKVHMRKVSVAQDVDAMTLARGTPGYSGADLANLVNEAALFAARVNKRTVTMLEFEKAKDKINMGPERRTMIMTDKQKESTAYHEAGHAIVGYLVPEHDPVHKVTIIPRGRALGVTFFLPEGDQISISQKQLESKLSTLYAGRLAEDLIYGEENISTGASNDIKVATNIARNMVTQWGFSEKLGPILYTEDEGEVFLGRSMAKAKHMSDETAHSIDEEVRAIVNRNYARAREILIDNMDILHAMKDALVKYETIEEEQIKQLMNREPVTPPSGWGEPKTQQAAYANSTTNDTKPESAVENTDDFNVAAALEHHHHHH”, which “soluble on expression in E. coli” value is on record?
**A.** not soluble

**Q.** For “MAGDPMITETQLTAIQTYALQKLAHDHSGHGRDHLQRVNRLARRLAKDEGANLNLTLAAAWLHDVIDDKLMANPAKAHQDLIVQLNAQNVTADDQTAIFAIIDHMSFSKSFNGPQKLSLEGQVVQDADRLDAIGAIGIARALYYSGHVGEKIYDPAIAPREHMTREQYRHQPGTAINHFYEKLFKLAALMNTDTAKALAAHRTAVMHEFVDQFKAEWTADDKALEHHHHHH”, which “soluble on expression in E. coli” value is on record?
**A.** soluble

**Q.** For “MAGDPMITVVGVRFKKAGKIYYFSPGDLNINKGDDVIVETARGIEYGNCVIGLKQVGEESIVSPLKSVIRVATDEDEIKYRENKNKEKEAFNICLSKIKKHELVMKLIDVEYTFDNNKIIFYFTAEGRVDFRELVKDLASVFRTRIELRQIGVRDEAKMIGGFGVCGRPMCCALYLGDFAPVSIKMAKEQNLSLNPSKISGVCGRLMCCLNYEQETYETIRKRMPKVGSIVSTKEYGKAEVVDNNIIKEAVKIKFTAEDGESISEAEVHIKDLKLISGSYEGNVDESQIKLELEDVDAKEVKELFKTDLEHHHHHH”, which “soluble on expression in E. coli” value is on record?
**A.** not soluble

**Q.** Which “soluble on expression in E. coli” value does the source give for “MAGDPMKVFVVNLDKDKDKKEKIKNECRNAELDYEIISAVDGRELSYNELKSKVHPVSLNYLSKGEIGCVLSHQRIYKRILDDDIDYALILEDDVELSQDIKVFLKEFLSVKDKNKGDVFLLYPSGLRFLNRRINVSHDYFFYEAYNSSCAHGYIISNKAAKKLIRINTPIILVADAWLWFYQISLLKVYVLNKELVRAYDVDKSLSTIETERSLLLDEKEKHQMQIIKKQPLYYLIKYYHKYIRRLFINKDKLEHHHHHH” here?
**A.** soluble
